In patent WO2022196697A1 (dated 2022):

B1: AAL (Aleuria aurantia lectin) (other, UniProt P18891 2-313, looked up)
chain: PTEFLYTSKIAAISWAATGGRQQRVYFQDLNGKIREAQRGGDNPWTGGSSQNVIGEAKLFSPLAAVTWKSAQGIQIRVYCVNKDNILSEFVYDGSKWITGQLGSVGVKVGSNSKLAALQWGGSESAPPNIRVYYQKSNGSGSSIHEYVWSGKWTAGASFGSTVPGTGIGATAIGPGRLRIYYQATDNKIREHCWDSNSWYVGGFSASASAGVSIAAISWGSTPNIRVYWQKGREELYEAAYGGSWNTPGQIKDASRPTPSLPDTFIAANSSGNIDISVFFQASGVSLQQWQWISGKGWSIGAVVPTGTPAGW
notes: also called AAL lectin
B2: AOL (Aspergillus oryzae lectin) (other, UniProt Q2UNX8 1-311, looked up)
chain: MSTPGAQEVLFRTGIAAVNSTNHLRVYFQDSHGSIRESLYESGWANGTAKNVIAKAKLGTPLAATSKELKNIRVYSLTEDNVLQEAAYDSGSGWYNGALAGAKFTVAPYSRIGSVFLAGTNALQLRIYAQKTDNTIQEYMWNGDGWKEGTNLGVALPGTGIGVTCWRYTDYDGPSIRVWFQTDNLKLVQRAYDPHTGWYKELTTIFDKAPPRCAIAATNFNPGKSSIYMRIYFVNSDNTIWQVCWDHGQGYHDKRTITPVIQGSEIAIISWEGPELRLYFQNGTYVSAISEWTWGKAHGSQLGRRALPPAE
notes: also called biotinylated AOL

Tests used:
[1] = molecular target: T1, HER2 immunoprecipitated from the membrane fraction of cardiomyocytes (human, UniProt P04626 23-1255); test: lectin blot of immunoprecipitated HER2 after electrophoresis (legend of Fig. 3)
T1 construct: also called cardiomyocyte-derived HER2; myocardial cell-derived HER2

[2] = molecular target: T2, HER2 immunoprecipitated from the membrane fraction of HER2-type breast cancer cells (HER2 solution) (human, UniProt P04626 23-1255, glycosylated; also tested after PNGase F treatment); test: lectin array with immunoprecipitated HER2, with and without PNGase F; confirmed by Western and lectin blotting
T2 construct: Not fractionated by lectin; also called breast cancer cell-derived HER2; unfractionated HER2

Binder | binding result [1] | binding result [2]
B1 | binds | binds
B2 | binds | binds
